# Bridges are numbered along the chain shown (N, C = ends). Primed or numbered codes have the meaning given here. Where no end group is shown, it is not given here. [ ]: non-standard residue; d: D form. L1″ = C4 bis(bromoacetamide) staple without lipid, joins two Cys through thioethers; L4″ = octadecanedioic acid-PEG-ornithine staple, joins two Cys through thioethers; L2″ = myristic acid-PEG-ornithine staple, joins two Cys through thioethers; L6″ = as L5, made on Rink amide resin, joins two Cys through thioethers; L1 = C4 bis(bromoacetamide) staple without lipid; L4 = octadecanedioic acid-PEG-ornithine staple; L3 = myristic acid-PEG-PEG-ornithine staple; L5 = C18 diacid-Lys-PEG2-ornithine staple; L2 = myristic acid-PEG-ornithine staple; L6 = made as L5 but on Rink amide resin; L11 = not defined here; L12 = not defined here; L13 = not defined here; L7 = not defined here; L8 = not defined here; L9 = not defined here
# B1: mTA 22: OXM (B) and L9 (peptide)
# peptide: H[dS]QGTFTSDYSKYLDECAAKEFICWLMNTKRNRNNIA
# modifications: linker 17-24 via L9; not fully specified; printed as HsQGTFTSDYSKYLDEXAAKEFIXWLMNTKRNRNNIA; reading uncertain
# B2: mTA 21: OXM (B) and L8 (peptide)
# peptide: H[dS]QGTFTSDYSKYLDECAAKEFICWLMNTKRNRNNIA
# modifications: linker 17-24 via L8; reading uncertain; also: printed as HsQGTFTSDYSKYLDEXAAKEFIXWLMNTKRNRNNIA
# B3: mTA 24: OXM (B) and L11 (peptide)
# peptide: H[dS]QGTFTSDYSKYLDECAAKEFICWLMNTKRNRNNIA
# modifications: linker 17-24 via L11; reading uncertain; also: printed as HsQGTFTSDYSKYLDEXAAKEFIXWLMNTKRNRNNIA
# B4: mTA 25: OXM (B) and L12 (peptide)
# peptide: H[dS]QGTFTSDYSKYLDECAAKEFICWLMNTKRNRNNIA
# modifications: linker 17-24 via L12; reading uncertain; also: printed as HsQGTFTSDYSKYLDEXAAKEFIXWLMNTKRNRNNIA
# B5: mTA 20: OXM (B) and L7 (peptide)
# peptide: H[dS]QGTFTSDYSKYLDECAAKEFICWLMNTKRNRNNIA
# modifications: linker 17-24 via L7; reading uncertain; also: printed as HsQGTFTSDYSKYLDEXAAKEFIXWLMNTKRNRNNIA
# B6: mTA 26: OXM (B) and L13 (peptide)
# peptide: H[dS]QGTFTSDYSKYLDECAAKEFICWLMNTKRNRNNIA
# modifications: linker 17-24 via L13; reading uncertain; also: printed as HsQGTFTSDYSKYLDEXAAKEFIXWLMNTKRNRNNIA
# Biological target: human glucagon-like peptide 1 receptor (GLP-1R) (human, UniProt P43220 24-463)
# Assay: cell-based or functional assay
row,Binder,"EC50, CRE-luciferase reporter in HEK293-GLP-1R-CRE cells [nM]"
1,H[dS]QGTFTSDYSKYLDECAAKEFICWLLRA (linker 17-24 via L5) [mTA 32: GLP-1/Glucagon (B) and L5],0.3
2,H[dS]QGTFTSDYSKYLDSCAAHDFVCWLLRA (linker 17-24 via L2) [mTA 28: GLP-1/Glucagon (A) and L2],0.1
3,H[dS]QGTFTSDYSKYLDSCAAHDFVCWLLRA (linker 17-24 via L1) [mTA 27: GLP-1/Glucagon (A) and L1],0.2
4,H[dS]QGTFTSDYSKYLDECAAKEFICWLLRA (linker 17-24 via L4) [mTA 31: GLP-1/Glucagon (B) and L4],0.03
5,H[dS]QGTFTSDYSKYLDECAAKEFICWLLNGGPSSGAPPPS (linker 17-24 via L4) [mTA 37: GLP-1/Glucagon (D) and L4],0.03
6,B1,40
7,H[dS]QGTFTSDYSKYLDECAAKEFICWLLRAGPSSGAPPPS (linker 17-24 via L4) [mTA 34: GLP-1/Glucagon (C) and L4],0.04
8,H[dS]QGTFTSDYSKYLDECAAKEFICWLLRA (linker 17-24 via L1) [mTA 29: GLP-1/Glucagon (B) and L1],0.03
9,B2,0.12
10,B3,0.2
11,H[dS]QGTFTSDYSKYLDECAAKEFICWLLRAGPSSGAPPPS (linker 17-24 via L6) [mTA 36: GLP-1/Glucagon (C) and L6],0.3
12,H[dS]QGTFTSDYSKYLDECAAKEFICWLLNGGPSSGAPPPS (linker 17-24 via L5) [mTA 38: GLP-1/Glucagon (D) and L5],0.04
13,H[dS]QGTFTSDYSKYLDECAAKEFICWLMNTKRNRNNIA (linker 17-24 via L4″) [mTA 17: OXM (B) and L4],2
14,B4,0.1
15,H[dS]QGTFTSDYSKYLDECAAKEFICWLMNTKRNRNNIA (linker 17-24 via L6″) [mTA 19: OXM (B) and L6],0.2
16,H[dS]QGTFTSDYSKYLDECAAKEFICWLMNTKRNRNNIA (linker 17-24 via L5) [mTA 18: OXM (B) and L5],0.2
17,H[dS]QGTFTSDYSKYLDECAAKEFICWLLRA (linker 17-24 via L2) [mTA 30: GLP-1/Glucagon (B) and L2],0.03
18,H[dS]QGTFTSDYSKYLDECAAKEFICWLMNTKRNRNNIA (linker 17-24 via L1″) [mTA 15: OXM (B) and L1],0.03
19,H[dS]QGTFTSDYSKYLDECAAKEFICWLLRAGPSSGAPPPS (linker 17-24 via L5) [mTA 35: GLP-1/Glucagon (C) and L5],0.5
20,B5,17
21,B6,0.05
22,H[dS]QGTFTSDYSKYLDECAAKEFICWLLRA (linker 17-24 via L6) [mTA 33: GLP-1/Glucagon (B) and L6],0.05
23,H[dS]QGTFTSDYSKYLDECAAKEFICWLMNTKRNRNNIA (linker 17-24 via L2″) [mTA 16: OXM (B) and L2],0.04
24,H[dS]QGTFTSDYSKYLDECAAKEFICWLLNGGPSSGAPPPS (linker 17-24 via L6) [mTA 39: GLP-1/Glucagon (D) and L6],0.04

# Biological target: human glucagon receptor (GCGR) (human, UniProt P47871 26-477)
# Assay: cell-based or functional assay
# human glucagon receptor (GCGR), sequence (P47871 26-477): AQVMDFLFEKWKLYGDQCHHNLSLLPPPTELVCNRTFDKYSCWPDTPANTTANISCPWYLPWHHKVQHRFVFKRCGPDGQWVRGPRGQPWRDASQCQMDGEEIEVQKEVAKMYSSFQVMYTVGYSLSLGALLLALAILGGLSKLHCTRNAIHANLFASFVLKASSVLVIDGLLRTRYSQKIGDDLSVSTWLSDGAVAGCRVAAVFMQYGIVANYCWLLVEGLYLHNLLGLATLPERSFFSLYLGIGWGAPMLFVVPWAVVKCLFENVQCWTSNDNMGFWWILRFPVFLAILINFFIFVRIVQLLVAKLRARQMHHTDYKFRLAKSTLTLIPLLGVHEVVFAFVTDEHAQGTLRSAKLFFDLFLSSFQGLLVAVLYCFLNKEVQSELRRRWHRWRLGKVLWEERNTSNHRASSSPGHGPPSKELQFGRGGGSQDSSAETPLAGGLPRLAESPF
row,Binder,"EC50, CRE-luciferase reporter in HEK293-GCGR-CRE cells [nM]"
1,H[dS]QGTFTSDYSKYLDECAAKEFICWLLRA (linker 17-24 via L5) [mTA 32: GLP-1/Glucagon (B) and L5],1
2,H[dS]QGTFTSDYSKYLDSCAAHDFVCWLLRA (linker 17-24 via L2) [mTA 28: GLP-1/Glucagon (A) and L2],0.1
3,H[dS]QGTFTSDYSKYLDSCAAHDFVCWLLRA (linker 17-24 via L1) [mTA 27: GLP-1/Glucagon (A) and L1],0.04
4,H[dS]QGTFTSDYSKYLDECAAKEFICWLLRA (linker 17-24 via L4) [mTA 31: GLP-1/Glucagon (B) and L4],0.12
5,H[dS]QGTFTSDYSKYLDECAAKEFICWLLNGGPSSGAPPPS (linker 17-24 via L4) [mTA 37: GLP-1/Glucagon (D) and L4],0.2
6,B1,14
7,H[dS]QGTFTSDYSKYLDECAAKEFICWLLRAGPSSGAPPPS (linker 17-24 via L4) [mTA 34: GLP-1/Glucagon (C) and L4],0.4
8,H[dS]QGTFTSDYSKYLDECAAKEFICWLLRA (linker 17-24 via L1) [mTA 29: GLP-1/Glucagon (B) and L1],0.03
9,B2,0.7
10,B3,3
11,H[dS]QGTFTSDYSKYLDECAAKEFICWLLRAGPSSGAPPPS (linker 17-24 via L6) [mTA 36: GLP-1/Glucagon (C) and L6],0.5
12,H[dS]QGTFTSDYSKYLDECAAKEFICWLLNGGPSSGAPPPS (linker 17-24 via L5) [mTA 38: GLP-1/Glucagon (D) and L5],0.4
13,H[dS]QGTFTSDYSKYLDECAAKEFICWLMNTKRNRNNIA (linker 17-24 via L4″) [mTA 17: OXM (B) and L4],3
14,B4,0.5
15,H[dS]QGTFTSDYSKYLDECAAKEFICWLLRA (linker 17-24 via L2) [mTA 30: GLP-1/Glucagon (B) and L2],0.05
16,H[dS]QGTFTSDYSKYLDECAAKEFICWLMNTKRNRNNIA (linker 17-24 via L1″) [mTA 15: OXM (B) and L1],0.2
17,H[dS]QGTFTSDYSKYLDECAAKEFICWLLRAGPSSGAPPPS (linker 17-24 via L5) [mTA 35: GLP-1/Glucagon (C) and L5],1
18,B5,5.4
19,B6,0.5
20,H[dS]QGTFTSDYSKYLDECAAKEFICWLLRA (linker 17-24 via L6) [mTA 33: GLP-1/Glucagon (B) and L6],0.4
21,H[dS]QGTFTSDYSKYLDECAAKEFICWLMNTKRNRNNIA (linker 17-24 via L2″) [mTA 16: OXM (B) and L2],0.3
22,H[dS]QGTFTSDYSKYLDECAAKEFICWLLNGGPSSGAPPPS (linker 17-24 via L6) [mTA 39: GLP-1/Glucagon (D) and L6],0.3

# Biological target: T1, human Glucagon-like peptide 2 receptor (GLP-2R) (human, UniProt O95838 1-553)
# T1 sequence (looked up): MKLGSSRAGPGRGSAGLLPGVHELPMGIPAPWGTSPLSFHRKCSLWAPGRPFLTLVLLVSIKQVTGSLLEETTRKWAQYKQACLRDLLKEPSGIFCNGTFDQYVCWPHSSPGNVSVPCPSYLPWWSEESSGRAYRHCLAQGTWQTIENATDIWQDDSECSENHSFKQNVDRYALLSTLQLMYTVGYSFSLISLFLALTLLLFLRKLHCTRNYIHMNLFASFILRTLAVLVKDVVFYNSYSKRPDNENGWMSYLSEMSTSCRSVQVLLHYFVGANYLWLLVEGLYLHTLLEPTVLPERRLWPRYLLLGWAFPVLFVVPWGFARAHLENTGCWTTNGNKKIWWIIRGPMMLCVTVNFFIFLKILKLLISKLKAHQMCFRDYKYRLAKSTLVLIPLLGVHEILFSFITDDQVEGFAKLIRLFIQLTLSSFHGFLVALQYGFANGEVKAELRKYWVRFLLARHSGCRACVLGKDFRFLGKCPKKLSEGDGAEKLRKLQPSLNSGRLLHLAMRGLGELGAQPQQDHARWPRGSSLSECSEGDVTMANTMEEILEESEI
# Assay: cell-based or functional assay
row,Binder,"EC50, CRE-luciferase reporter in HEK293-GLP-2R-CRE cells [nM]"
1,HGDGSFSCEMNTILCALAARDFINWLIQTKITD (linker 8-15 via L1) [mTA 53: GLP-2 (D) and L1],14.3
2,HGDGSFSDEMNTILDALAARCFINWLICTKITD (linker 21-28 via L1) [mTA 54: GLP-2 (E) and L1],0.13
3,HGDGSFSDEMNTILDNCAARDFICWLIQTKITD (linker 17-24 via L1) [mTA 46: GLP-2 (A) and L1],0.045
4,HGDGSFSDEMNTILDNCAARDFICWLIQTKITD (linker 17-24 via L3) [mTA 48: GLP-2 (A) and L3],0.045
5,HGDGSFSDEMNTILDCLAARDFICWLIQTKITD (linker 16-24 via L1) [mTA 52: GLP-2 (C) and L1],5.6
6,HGDGSFSDEMNTILDNCAARDFICWLIQTKITD (linker 17-24 via L4) [mTA 49: GLP-2 (A) and L4],0.241
7,HGDGSFSDEMNTILDNCAARDFICWLIQTKITD (linker 17-24 via L2) [mTA 47: GLP-2 (A) and L2],0.041
8,HGDGSFSDEMNTILDNCAARDFICWLIQTKITD (linker 17-24 via L5) [mTA 50: GLP-2 (A) and L5],6.4
9,HGDGSFSDEMNTILDNCAARDFICWLIQTKITD (linker 17-24 via L6) [mTA 51: GLP-2 (A) and L6],0.7
10,HGDGSFSDCMNTILDCLAARDFINWLIQTKITD (linker 9-16 via L1) [mTA 55: GLP-2 (F) and L1],0.064

# From patent US20180344812A1 (Scripps Research, published 2018)
